In experiment [1] the target is GST-Nef (HIV-1 NL4-3 Nef containing a T71R change) (HIV-1 NL4-3) [GST: P08515].
Experiment [2] concerns the target GST-NefR90 (HIV-1 Nef carrying an F90R mutation) (HIV-1) [GST: P08515].
Experiment [3] addresses GST-Nef (HIV-1 NL4-3 Nef containing a T71R change) (HIV-1 NL4-3) [GST: P08515]. The source holds these as a separate data set.
The target of experiment [4] is GST-NefR90 (HIV-1 Nef carrying an F90R mutation) (HIV-1) [GST: P08515]. This is another data set of the same source.
Experiment [5] deals with GST-Nef (HIV-1 NL4-3 Nef containing a T71R change) (HIV-1 NL4-3) [GST: P08515]. As to the kind of experiment: competition plate assay: unlabeled GST-SH3 vs biotinylated Hck-SH3 probe (66 nM) on immobilized GST-Nef.
Experiment [6] has the same target. In words: calculated from competition with Hck-SH3 probe on immobilized Nef, based on KD 250 nM of Hck-SH3/Nef.
The target in experiment [7] is GST-NefR90 (HIV-1 Nef carrying an F90R mutation) (HIV-1) [GST: P08515]. As to the kind of experiment: estimated from competition by Hck-SH3 and the earlier KD 1.99 µM of Hck-SH3/NefR90.

With “GST-Hck-SH3 (native Hck SH3 domain, GST fusion protein) (from UniProt P08631 78-138)”, in experiment [1], the inhibition (commonly how much of the control response was suppressed) at an equimolar probe:competitor ratio was less than 5%. In addition, the inhibition at an equimolar probe:competitor ratio in experiment [2] is less than 5%. Besides, in experiment [3], the IC50 (usually the concentration that gives 50% inhibition) is more than 850 nM and the fold excess over the probe needed for 50% inhibition is more than 100 fold. In experiment [4], this substance had an IC50 of more than 1100 nM and a fold molar excess over the probe needed for 50% inhibition of more than 16 fold. Moreover, in experiment [5], the ratio of competitor per probe giving 50% inhibition (1:x competitor:probe) was 1.

For the substance “GST-RRT.A1 (Hck-derived RRT-SH3 domain, RT-loop VSWSPD) (from UniProt P08631 62-118) (designed binder)”, the values for the inhibition at an equimolar probe:competitor ratio in experiment [1] and in experiment [2] were 55% and 52%, respectively. The equilibrium dissociation constant (Kd) (commonly a measure of binding affinity in units of concentration) in experiment [6] is 7 nM; in experiment [7], less than 100 nM. Further, the ratio of competitor per probe giving 50% inhibition (1:x competitor:probe) in experiment [5] is 35.

As for “GST-RRT.A2 (Hck-derived RRT-SH3 domain, RT-loop FSWSDT) (from UniProt P08631 62-118) (designed binder)”, the inhibition at an equimolar probe:competitor ratio in experiment [1] amounted to 20%; in experiment [2], 53%. Besides, the ratio of competitor per probe giving 50% inhibition (1:x competitor:probe) in experiment [5] came to 19.

For the substance “GST-RRT.A4 (Hck-derived RRT-SH3 domain, RT-loop YSWSDM) (from UniProt P08631 62-118) (designed binder)”, the results for the inhibition at an equimolar probe:competitor ratio in experiment [1] and in experiment [2] were 34% and 44%, respectively. The ratio of competitor per probe giving 50% inhibition (1:x competitor:probe) in experiment [5] turned out to be 10.

For “GST-RRT.B1 (Hck-derived RRT-SH3 domain, RT-loop WSPFPS) (from UniProt P08631 62-118) (designed binder)”, the values for the inhibition at an equimolar probe:competitor ratio in experiment [1] and in experiment [2] were 41% and 9%, respectively. In addition, in experiment [5], the ratio of competitor per probe giving 50% inhibition (1:x competitor:probe) came to 26.

Take “GST-RRT.B2 (Hck-derived RRT-SH3 domain, RT-loop DSPFSF) (from UniProt P08631 62-118) (designed binder)”: the inhibition at an equimolar probe:competitor ratio was found to be 22% in experiment [1] and 26% in experiment [2]. Also, in experiment [5], the ratio of competitor per probe giving 50% inhibition (1:x competitor:probe) stood at 22.

Take “GST-RRT.B4 (Hck-derived RRT-SH3 domain, RT-loop FSPFDW) (from UniProt P08631 62-118) (designed binder)”: the inhibition at an equimolar probe:competitor ratio is 41% in experiment [1] and 37% in experiment [2]. Also, the ratio of competitor per probe giving 50% inhibition (1:x competitor:probe) in experiment [5] was 21.

As for “GST-RRT.B6 (Hck-derived RRT-SH3 domain, RT-loop YSPFSW) (from UniProt P08631 62-118) (designed binder)”, the inhibition at an equimolar probe:competitor ratio came out at 51% in experiment [1] and 14% in experiment [2]. Moreover, the dissociation constant Kd in experiment [6] was 7 nM. Further, the ratio of competitor per probe giving 50% inhibition (1:x competitor:probe) in experiment [5] is 37.

Turning to “GST-RRT.C1 (Hck-derived RRT-SH3 domain, RT-loop TSPFPW) (from UniProt P08631 62-118) (designed binder)”, the values for the inhibition at an equimolar probe:competitor ratio in experiment [1] and in experiment [2] were 39% and less than 5%, respectively. For the same substance, the dissociation constant Kd in experiment [6] was 7 nM. Also, the ratio of competitor per probe giving 50% inhibition (1:x competitor:probe) in experiment [5] worked out at 31.

Turning to “GST-RRT.C2 (Hck-derived RRT-SH3 domain, RT-loop YSFFPW) (from UniProt P08631 62-118) (designed binder)”, the inhibition at an equimolar probe:competitor ratio was 20% in experiment [1] and 13% in experiment [2]. In addition, the ratio of competitor per probe giving 50% inhibition (1:x competitor:probe) in experiment [5] amounted to 16.

Turning to “GST-RRT.C3 (Hck-derived RRT-SH3 domain, RT-loop YSDFPW) (from UniProt P08631 62-118) (designed binder)”, the inhibition at an equimolar probe:competitor ratio amounted to 42% in experiment [1] and 20% in experiment [2]. In addition, in experiment [5], the ratio of competitor per probe giving 50% inhibition (1:x competitor:probe) was 26.

On to “GST-RRT.C4 (Hck-derived RRT-SH3 domain, RT-loop DSWFPW) (from UniProt P08631 62-118) (designed binder)”, for which the inhibition at an equimolar probe:competitor ratio in experiment [1] is 10%; in experiment [2], 19%. Further, in experiment [5], the ratio of competitor per probe giving 50% inhibition (1:x competitor:probe) stood at 14.

As to “GST-RRT.D1 (Hck-derived RRT-SH3 domain, RT-loop SSFYSS) (from UniProt P08631 62-118) (designed binder)”, the inhibition at an equimolar probe:competitor ratio was found to be 45% in experiment [1] and 17% in experiment [2]. Also, the ratio of competitor per probe giving 50% inhibition (1:x competitor:probe) in experiment [5] worked out at 22.

Regarding “GST-RRT.m1 (Hck-derived RRT-SH3 domain selected on NefR90, RT-loop QGFLDQ) (from UniProt P08631 62-118) (designed binder)”, the inhibition at an equimolar probe:competitor ratio in experiment [1] was less than 5%; in experiment [2] it was 73%. The ratio of competitor per probe giving 50% inhibition (1:x competitor:probe) in experiment [5] turned out to be 0.8.

“GST-RRT.m2 (Hck-derived RRT-SH3 domain selected on NefR90, RT-loop NAFLPS) (from UniProt P08631 62-118) (designed binder)”: the inhibition at an equimolar probe:competitor ratio in experiment [1] is less than 5%; in experiment [2] it was 73%. Further, in experiment [5], the ratio of competitor per probe giving 50% inhibition (1:x competitor:probe) was found to be 2.

Turning to “GST-RRT.m3 (Hck-derived RRT-SH3 domain selected on NefR90, RT-loop EAWSPL) (from UniProt P08631 62-118) (designed binder)”, the inhibition at an equimolar probe:competitor ratio came out at 22% in experiment [1] and 62% in experiment [2]. Also, the ratio of competitor per probe giving 50% inhibition (1:x competitor:probe) in experiment [5] was 17.

With “GST-RRT.m4 (Hck-derived RRT-SH3 domain selected on NefR90, RT-loop ESYSEW) (from UniProt P08631 62-118) (designed binder)”, the inhibition at an equimolar probe:competitor ratio was less than 5% in experiment [1] and 46% in experiment [2].

Values taken from patent US6794144.
